Data on 35 compounds can be found in patent publication US6391305B1, “Conjugates useful in the treatment of prostate cancer” (priority 1999, dated 2002).

This data set addresses T1, enzymatically active free PSA (Homo sapiens, UniProt P07288).
T1 construct: required for 50% cleavage of the noted oligopeptides with enzymatically active free PSA
Type of data set: biochemical. As to conditions: for Time to 50% Substrate Cleavage by York PSA (Min), values marked *: asterisk not explained in Table 2. The protocol: All other oligopeptides were tested as neutral compounds.

The mark [1] stands for this setting: oligopeptide, PSA digestion buffer pH8.0, molar ratio to PSA 100 to 1.

Where “and” joins values, the source holds several entries; their conditions need not be identical. Equal entries are not always repeated. Where two headings read alike, the source gives them in different places. Marks after values point to notes of the source that are not given here. Non-standard residues stand in square brackets, D forms with d. Residues, ends and D or L forms follow the SMILES beside them. Primed or numbered codes have the meaning given here. No end group written: not given here. *: point of attachment. PEG(1) = polyethylene glycol containing substituent with 1 ethyleneoxy subunit; X5 = (2R,3S)‑2,3,4‑trihydroxybutanoyl, O=C([C@H](O)[C@@H](O)CO)*; Decanoyl(3,6,9-trioxa) = COCCOCCOCC(=O)*; Glyceroyl(2S) = O=C([C@@H](O)CO)*; hArg = N=C(N)NCCCC[C@H](N)C(=O)O; 3Pal = N[C@@H](Cc1cccnc1)C(=O)O; Cha = N[C@@H](CC1CCCCC1)C(=O)O; Chg = N[C@H](C(=O)O)C1CCCCC1; Nle = CCCC[C@H](N)C(=O)O; PEG(15) = PEG(15): -; PEG(16) = PEG(16): -; PEG(17) = PEG(17): -; Glycolyl = O=C(CO)*

T1 sequence (P07288 25-261): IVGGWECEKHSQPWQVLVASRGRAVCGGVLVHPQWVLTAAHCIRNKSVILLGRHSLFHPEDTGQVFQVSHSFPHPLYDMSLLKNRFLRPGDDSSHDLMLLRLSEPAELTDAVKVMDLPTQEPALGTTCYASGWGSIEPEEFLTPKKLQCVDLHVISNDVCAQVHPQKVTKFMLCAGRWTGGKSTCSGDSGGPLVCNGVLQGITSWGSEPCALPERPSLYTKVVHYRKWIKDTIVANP

Turning to `CCCC[C@H](NC(=O)[C@H](CO)NC(=O)[C@H](CCC(N)=O)NC(=O)[C@H](Cc1ccc(O)cc1)NC(=O)[C@H](CO)NC(=O)[C@H](CO)NC(=O)[C@H](CCCCNC(=N)N)NC(C)=O)C(=O)O` [Ac-hRSSYQ-SNle-acid] (Ac-[hArg]SSYQS[Nle]-OH), the “Time to 50% Substrate Cleavage by York PSA” value (psa digestion buffer, pH 8) was 25 min.
For “(l)2,3-dihydroxypropionyl-SSSChgQ-SL-acid: blocked oligopeptide with PSA cleavage site, Example 1 ({Glyceroyl(2S)}-SSS[Chg]QSL-OH)”, the “Time to 50% Substrate Cleavage by York PSA” value under setting [1] was 80 min and 110 min.
On the same count and under the same terms, the value for “2,3-dihydroxypropionyl-hSSSChgQ-SL-acid: blocked oligopeptide with PSA cleavage site, Example 1 ({2,3‑dihydroxypropionyl}-[hS]SS[Chg]QSL-OH)” was 160 min.
Consider “2-hydroxyacetyl-ShRChgQ-SL-acid: blocked oligopeptide with PSA cleavage site, Example 1 (Glycolyl-S[hArg][Chg]QSL-OH)”, for which the “Time to 50% Substrate Cleavage by York PSA” value under setting [1] is 120 min. The “Time to 50% Substrate Cleavage by York PSA (Min), values marked *” value (oligopeptide) is 30 min.
Take “PEG(15)-ShRYQ-SL-acid: blocked oligopeptide with PSA cleavage site, Example 1 ({PEG(15)}-S[hArg]YQSL-OH)”: the “Time to 50% Substrate Cleavage by York PSA” value under setting [1] stood at 40 min.
With “2-hydroxyacetylhRYQ-SL-acid: blocked oligopeptide with PSA cleavage site, Example 1 (Glycolyl-[hArg]YQSL-OH; SMILES CC(C)C[C@H](NC(=O)[C@H](CO)NC(=O)[C@H](CCC(N)=O)NC(=O)[C@H](Cc1ccc(O)cc1)NC(=O)[C@H](CCCCNC(=N)N)NC(=O)CO)C(=O)O)”, under “oligopeptide”, the “Time to 50% Substrate Cleavage by York PSA (Min), values marked *” value is 105* Min.
Turning to “PEG(17)-ShRYQ-SL-acid: blocked oligopeptide with PSA cleavage site, Example 1 ({PEG(17)}-S[hArg]YQSL-OH)”, the “Time to 50% Substrate Cleavage by York PSA” value under setting [1] was 55 min.
For the compound “PEG(19)ShRYQ-SL-acid: blocked oligopeptide with PSA cleavage site, Example 1 ({PEG(19)}-S[hArg]YQSL-OH)”, the “Time to 50% Substrate Cleavage by York PSA” value under setting [1] came to 60 min.
For “ShRChgQ-SL-acid: oligopeptide without N-terminal blocking group, Example 1 (S[hArg][Chg]QSL-OH)”, under “oligopeptide, 4 hours”, the “Substrate cleavage by York PSA at 4 HOUR” value amounted to 4 HOUR = 8%.
With “PEG(1)-ShRChgQ-SL-acid: blocked oligopeptide with PSA cleavage site, Example 1 ({PEG(1)}-S[hArg][Chg]QSL-OH)”, the “Time to 50% Substrate Cleavage by York PSA (Min), values marked *” value (oligopeptide) was 120* Min.
“2,3-dihydroxypropionyl-ShRYQ-SL-acid: blocked oligopeptide with PSA cleavage site, Example 1 ({2,3‑dihydroxypropionyl}-S[hArg]YQSL-OH)”: the “Time to 50% Substrate Cleavage by York PSA” value under setting [1] was 35 min and 50 min.
Turning to “2(S)-2,3-dihydroxy-propionyl ShRChgQSL-acid: blocked oligopeptide with PSA cleavage site, Example 1 ({2(S)‑2,3‑dihydroxypropionyl}-S[hArg][Chg]QSL-OH)”, the “Time to 50% Substrate Cleavage by York PSA (Min), values marked *” value (oligopeptide) is given as 35* Min.
On to “2,3-dihydroxypropionyl-ShRChgQ-SL-acid: blocked oligopeptide with PSA cleavage site, Example 1 ({2,3‑dihydroxypropionyl}-S[hArg][Chg]QSL-OH)”, for which, under setting [1], the “Time to 50% Substrate Cleavage by York PSA” value was found to be 75 min.
For “2,3-dihydroxypropionyl-SSSChgQ-SL-acid: blocked oligopeptide with PSA cleavage site, Example 1 ({2,3‑dihydroxypropionyl}-SSS[Chg]QSL-OH)”, the “Time to 50% Substrate Cleavage by York PSA” value under setting [1] was found to be 120 min.
The same measure, in the same setting: then “PEG(1)-hRSSChgQ-SL-acid: blocked oligopeptide with PSA cleavage site, Example 1 ({PEG(1)}-[hArg]SS[Chg]QSL-OH)”, with 30 min.
In the case of “2(S)2,3-dihydroxypropionyl-hRSSChgQ-SL-acid: blocked oligopeptide with PSA cleavage site, Example 1 ({2(S)‑2,3‑dihydroxypropionyl}-[hArg]SS[Chg]QSL-OH)”, where the note is “oligopeptide”, the “Time to 50% Substrate Cleavage by York PSA (Min), values marked *” value was 25* Min.
With “PEG(1)-ShRYQ-SL-acid: blocked oligopeptide with PSA cleavage site, Example 1 ({PEG(1)}-S[hArg]YQSL-OH)”, the “Time to 50% Substrate Cleavage by York PSA” value under setting [1] stood at 90 min.
Regarding “PEG(16)-ShRYQ-SL-acid: blocked oligopeptide with PSA cleavage site, Example 1 ({PEG(16)}-S[hArg]YQSL-OH)”, the “Time to 50% Substrate Cleavage by York PSA” value under setting [1] was determined as 40 min.
Same read-out and setting: then “(l)2,3-dihydroxypropionyl-SSChgQ-SL-acid: blocked oligopeptide with PSA cleavage site, Example 1 ({Glyceroyl(2S)}-SS[Chg]QSL-OH)”, with 180 min; and “2,3-dihydroxypropionyl-GSSChgQ-SL-acid: blocked oligopeptide with PSA cleavage site, Example 1 ({2,3‑dihydroxypropionyl}-GSS[Chg]QSL-OH)”, with 160 min.
On the same count and under the same terms, the value for “(l)2,3-dihydroxypropionyl-3PAL-SSChgQ-SL-acid: blocked oligopeptide with PSA cleavage site, Example 1 ({Glyceroyl(2S)}-[3Pal]SS[Chg]QSL-OH; SMILES CC(C)C[C@H](NC(=O)[C@H](CO)NC(=O)[C@H](CCC(N)=O)NC(=O)[C@@H](NC(=O)[C@H](CO)NC(=O)[C@H](CO)NC(=O)[C@H](Cc1cccnc1)NC(=O)[C@@H](O)CO)C1CCCCC1)C(=O)O)” was 70 min.
The same measure, in the same setting: the value for “2-hydroxyacetyl-hRASChgQ-SL-acid: blocked oligopeptide with PSA cleavage site, Example 1 (Glycolyl-[hArg]AS[Chg]QSL-OH; SMILES CC(C)C[C@H](NC(=O)[C@H](CO)NC(=O)[C@H](CCC(N)=O)NC(=O)[C@@H](NC(=O)[C@H](CO)NC(=O)[C@H](C)NC(=O)[C@H](CCCCNC(=N)N)NC(=O)CO)C1CCCCC1)C(=O)O)” was 70 min.
For the compound “(OH-Ac)SSSChgQ-SL-acid: 2-hydroxyacetyl blocked oligopeptide with PSA cleavage site, Example 1; blocked peptide of Example 3 Step B (Glycolyl-SSS[Chg]QSL-OH)”, the “Time to 50% Substrate Cleavage by York PSA” value under setting [1] was 120 min.
Consider “PEG(14)ShRYQ-SL-acid: blocked oligopeptide with PSA cleavage site, Example 1 ({PEG(14)}-S[hArg]YQSL-OH)”, for which the “Time to 50% Substrate Cleavage by York PSA” value under setting [1] came to 40 min.
On the same count and under the same terms, the value for “2-hydroxyacetyl-SSChgQ-SL-acid: blocked oligopeptide with PSA cleavage site, Example 1 (Glycolyl-SS[Chg]QSL-OH)” was 180 min; that for “2,3-dihydroxypropionyl-hRSSChgQ-SL-acid: blocked oligopeptide with PSA cleavage site, Example 1” was 50 min; that for “(2R,3S) 2,3,4-trihydroxybutanoyl-ShRChgQ-SL-acid: blocked oligopeptide with PSA cleavage site, Example 1 (X5-S[hArg][Chg]QSL-OH)” was 90 min.
Consider “PEG(2)-hRSSChgQ-SL-acid: blocked oligopeptide with PSA cleavage site, Example 1 ({Decanoyl(3,6,9-trioxa)}-[hArg]SS[Chg]QSL-OH)”, for which the “Time to 50% Substrate Cleavage by York PSA (Min), values marked *” value (oligopeptide) is on record as 40* Min.
Turning to “2-hydroxyacetyl-hRSSYQ-SNle-acid: blocked oligopeptide with PSA cleavage site, Example 1 (Glycolyl-[hArg]SSYQS[Nle]-OH)”, the “Time to 50% Substrate Cleavage by York PSA” value under setting [1] amounted to 45 min.
On the same count and under the same terms, then “(d)2,3-dihydroxypropionyl-3PAL-SSChgQSL-acid: blocked oligopeptide with PSA cleavage site, Example 1 ({(d)‑2,3‑dihydroxypropionyl}-[3Pal]SS[Chg]QSL-OH)”, with 80 min.
As to “Ac-ANKASYQ-SL-acid: blocked oligopeptide with PSA cleavage site, Example 1 (chain 1 Ac-ANKASYQSL-OH; chain 2 Ac-ANKASYQSL-OH)”, the “Time to 50% Substrate Cleavage by York PSA” value under setting [1] was 135 min and 220 min.
Same read-out and setting: then “PEG(2)-3PAL-SSChgQ-SL-acid: blocked oligopeptide with PSA cleavage site, Example 1 ({Decanoyl(3,6,9-trioxa)}-[3Pal]SS[Chg]QSL-OH; SMILES COCCOCCOCC(=O)N[C@@H](Cc1cccnc1)C(=O)N[C@@H](CO)C(=O)N[C@@H](CO)C(=O)N[C@H](C(=O)N[C@@H](CCC(N)=O)C(=O)N[C@@H](CO)C(=O)N[C@@H](CC(C)C)C(=O)O)C1CCCCC1)”, with 80 min; and “Ac-hRASChgQ-SL-acid: blocked oligopeptide with PSA cleavage site, Example 1 (Ac-[hArg]AS[Chg]QSL-OH; SMILES CC(=O)N[C@@H](CCCCNC(=N)N)C(=O)N[C@@H](C)C(=O)N[C@@H](CO)C(=O)N[C@H](C(=O)N[C@@H](CCC(N)=O)C(=O)N[C@@H](CO)C(=O)N[C@@H](CC(C)C)C(=O)O)C1CCCCC1)”, with 50 min.
`CCCC[C@H](NC(=O)[C@H](CO)NC(=O)[C@H](CCC(N)=O)NC(=O)[C@H](CC1CCCCC1)NC(=O)[C@H](CCCCNC(=N)N)NC(C)=O)C(=O)O` [Ac-hR(CHA)Q-SNle-acid] (Ac-[hArg][Cha]QS[Nle]-OH): the “Time to 50% Substrate Cleavage by York PSA” value (psa digestion buffer, pH 8) amounted to 200 min.
Still for that read-out and setting: then `CCCC[C@H](NC(=O)[C@H](CO)NC(=O)[C@H](CCC(N)=O)NC(=O)[C@H](Cc1ccc(O)cc1)NC(=O)[C@H](CCCCNC(=N)N)NC(=O)[C@H](CO)NC(C)=O)C(=O)O` [Ac-ShRYQ-SNle-acid] (Ac-S[hArg]YQS[Nle]-OH), with 25 min.
